The values that follow come from the DeepSol protein solubility set.

This data set is described as follows: soluble on expression in E. coli; label from the status in PepcDB or PDB records.
As for “MGSDKIHHHHHHMSHPEPYFQCNDPALSPAERANWIAVLPLGAHEQHGPHLPFETDTIIAQGVVDRLILALPDTLPVTFLPVEPVGYSVEHMDVFGTRTLTFNEAVERWLGIAETLSGQGIRKLMMLNAHGGNSPLMTVVATEARIRFSMLAVATSWTRFGQPDGLIRPEDKAIDIHGGDIETSVMLALRPDLVAMDKAQNFSSRQSEFAARFTHLRAYGPHAFGWKMADLNPLGVAGNASVATAEKGENLLSHAVHGLVELLWDIHDFDIEKAFELPPHSSYMG”, the “soluble on expression in E. coli” value is on record as “not soluble”.

As to “MKFCYNVVTYCTKRKNNLQEYSIEITLQHPDDMMSLFGSNERHLKLIEENLDVIIHARTERVQVLGDSEEAVETARLTIEALLVLVNRGMTVNTSDVVTALSMAQNGSIDKFVALYEEEIIKDSYGKPIRVKTLGQKIYVDSVKNHDVVFGIGPAGTGKTFLAVTLAVTALKRGQVKRIILTRPAVEAGESLGFLPGDLKEKVDPYLRPVYDALYQILGKEQTSRLMEREIIEIAPLAYMRGRTLDDAFVILDEAQNTTIMQMKMFLTRLGFNSKMIVNGDVSQIDLPKNVKSGLIDAVEKLRNIKKIDFIHLSAKDVVRHPVVAEIINAYSDSESSHKLQSDKD”, the “soluble on expression in E. coli” value was “not soluble”.

As to “MEETNAFSAFNQLLMSQNVVSPTKQPMELTNEKLMEFVRNAMQNQQGLPEVPNIIPSALPSMLSQIPTQPMPQMPVVIQTSQMNDVMGDQMLKASPSASSDMSSLDSDVADHPMTMMMQQQQDFQNPLQQLTIDSSANIAAGVNGNTEQRSSGRHETWLECFNTTKFAEYEALLFSVYVAERTDRKYDGWTYFDCLHRLQSKCRYRVRAKKQDEFYIIEEKGVHNHGAVEPVGQAGSHAGLPKTIREIVDRSYNENWPVEARTIKVDEEIQRLGLPENPRLGRQIDNRLAYLRRVKNLHETRRIQDQVNGTMVIKDPVKEAMLQALMEQNGGQLTVGQGFVDQIIANQGIPEMPIKKEEPTQPVESMEMAEQVAKPLAMNPSPDFFQFLQNQKLSHEHEQQQQQLHAAILAQAQAHAQAQAQAQQNLMESQKNIHQ”, the “soluble on expression in E. coli” value is given as “not soluble”.

Turning to “GSHSLRYFVTAVSRPGHGKPRYMEVGYVDDTEFVRFDSDAENPRYEPRTPWMEQVEPEYWEGQTQIAKGNEQSSRVDLRTALRYYNQSAGGSHTIQRMRGCEVGSDGRLLRGYQQVAYDGRDYIALNEDLKTWTAADMAALITKHKWEQAGAAERDRAYLEGACVEWLRRYLELGNATLLRTDSPKAHVTHHSRPKDKVTLRCWALGFYPADITLTWQLNGEELTQDMELVETRPAGDGTFQKWASVVVPLGKEQNYTCHVYHEGLPEPLTLRW”, the “soluble on expression in E. coli” value is given as “soluble”.

On to “MAAVVALSLRRRLPATTLGGACLQASRGAQTAAATAPRIKKFAIYRWDPDKAGDKPHMQTYKVDLNKCGPMVLDALIKIKNEVDSTLTFRRSCREGICGSCAMNINGGNTLACTRRIDTNLNKVSKIYPLPHMYVIKDLVPDLSNFYAQYKSIEPYLKKKDESQEGKQQYLQSIEEREKLDGLYECILCACCSTSCPSYWWNGDKYLGPAVLMQAYRWMIDSRDDFTEERLAKLQDPFSLYRCHTIMNCTRTCPKGLNPGKAIAEIKKMMATYKEKKASV”, for which the “soluble on expression in E. coli” value is “not soluble”.

“MRLPIFLLALSSASIVFSLDPVPEEYANVPKEFFEKFQAAIKSGDPVAVVDLFAPDDMLPVSGMIEAAQGIIKSFESYPTGIIERVRYEYGVIQINVRYYPNTPLLSKKTTIFKIKYENKWKGWTMVHFSDWM”: the “soluble on expression in E. coli” value is “not soluble”.

As to “SAAAALRDQLTALLSSMFSQGLVDEQFQQLQMLQDEGGTPGFVSEVVTLFCDDADRIINEIATLLEQPVVNFDKVDAYVHQLKGSSASVGAQKVKFTCMQFRQFCQDKSRDGCLMALAVVRNDFYDLRNKFQTMLQLEQQIQAYDPKQQ”, the “soluble on expression in E. coli” value is on record as “soluble”.

On to “VEGLNPLIPQKSNRGVIDVAIFREYVSGGKDRAAEDRRRHRELVEESIKKNIGNIIAEESIIGQSKDKKIKIPIRSIKEYQFVYGKNGPSVGSGDGTEKRGEKIGEEKTANGGQGVGQAGNQEGEEIYETEITIEELINYLFDDLNLPDIDKKRIAEQESIRSYKNLGYQRKGIPPRLAKKRSVIEKIKRKQAYLRNSRELGDLDESAEEDIAAQETLDGVRKRFPFSEDDLRYRRVREDRKKDFNAVVICIMDVSGSMDQTKKYLARSFYFLLYQFIRLKYANVDVVFIAHTTTAKEVSEDEFFHRGESGGTYISSGYEKALEIIEQRYNPNSWNIYAFHCSDGDNWSEDNKKAVELGLKLCDVCNLFGYGEIVPGYYSTGSTIKDEFQKSIKRDNFSVITITNKDDVLPGLKKLLEKEGE”, for which the “soluble on expression in E. coli” value was “soluble”.

For the sequence “MAHHHHHHMSTHIERLQSEDEVAFKLKGEIAAIEKEIKSWFIKRRLNMELNYSLHNLFTNYNIVGLSINKKIDLKEKMLWHDIVNGKPTLEDTLSLDAKEYKADVYRKMWENSTTTDNPCRLVGSIFFRCLKGNYQLTEQEREGTCMHSFLNFTHCRKALKLQQANNIRTALTKQSAEDTQAKALFERRSALLGKLTGSAP”, the “soluble on expression in E. coli” value was “not soluble”.

For the sequence “MNVLALDTSQRIRIGLRKGEDLFEISYTGEKKHAEILPVVVKKLLDELDLKVKDLDVVGVGIGPGGLTGLRVGIATVVGLVSPYDIPVAPLNSFEMTAKSCPADGVVLVARRARKGYHYCAVYLKDKGLNPLKEPSVVSDEELEEITKEFSPKIVLKDDLLISPAVLVEESERLFREKKTIHYYEIEPLYLQKSIAELNWEKKKRG”, the “soluble on expression in E. coli” value is given as “not soluble”.

With “MTAGVTTGAFYKHFTSKEALFEEIIQPHINALINMYNEEFAKYLLNLENIDIEKSWRENFNELDPFINYIFENKRIFDLVLFQSAGTKYQDIVEKITSFVTKKTVCCLDKLKTIGMINQNLVFNEEEIHFYIYSFYATFYDILKHSYSKEKTMLLTRRLYQFSVPGWIELLS”, the “soluble on expression in E. coli” value was “not soluble”.

As to “GPGSMAMMLHTRRTVYSCICVHTHTHTHTCGCPPPTLSQKKKRSRLFMSSSSGDEYDPAEVTVHTTVASPSLSDTVVPSAAPFLRSAAGNASAATVAAAPALASLPKTAASVLPSSSSPTPPNTGNDVDGGYRLHSNIKGRIRCLTLNTAGTTLCAGSEDGQLCMWDFTVPLKSYRVQPTRVLTPFVNRISGLQPIIALTCASDDSYFVACQDGDSPVLVRASGEQLGYCAIGERGLMDVIQCKGHRAPVTCVAAHTHDAAAFFTGSQDGTVRLWNTATFKQRSVYAVKHGSGQLTDTHAVESVASLDSFHNGLGRVFASGGQDGRVQIWDSRVKYRPGGAIATVDMYAAAAPAGPDKVTEDPFMEKHVGGMMELHQKDAGASNASGSYGLAVRLGSAVKIIDLPQLSHSDGTTAPKAVLQERLPGCPTCSTRALCRLGAVVGLQQ”, the “soluble on expression in E. coli” value is given as “soluble”.

Consider “MALAMNRSITAITVTHNSAHTVRGALARLPPGVEIVCVDNASTDDLSTALSDLAVHRIDNPVNLGFGRACNIGAAAATGEYLLFINPDVRLGTDAVDALLQAAERYPNCGVFVPRTNTVDGRLWFREESEIDRLSGVSLPTRIRQVWGDCCVRFVNGGVFMIKRTLFLDTGGFDEDIFLYFEDDDLSYRLLQRDEPMILVSGAHAVHDIGTSVAQSTRSRIFRYRSKMRSEIHLRKKYGIAYSPFVDILRYSTKIGFYCLTLNRNRLINSLGRLIGIFDSILDRSRANRNGGYVALEHHHHHH”, for which the “soluble on expression in E. coli” value is on record as “not soluble”.

For the sequence “MRRIGAITALSLPVLLSLLYSCGTGGSASKEEILSKKEHNPEPNIPLECYTDTGVVKLGKAIANPCYVCHTKALTPYENEVDDFDLQLVYDFPEEIKEMGNPWLNAIKPELTIGSVPMPSDEEIKTWIRQDNWSKAYAEKGKGELVYFPDIPPIYKYENGSYELINVDKEGFVRDPETGEYTGWRVFKWKPFPGFFPTNGRIDSTFIRLPEKFRKKNGEFDLNLYKKNLAILECAMKGVAPGETCSGTEVGDFIMPFRYEGDASDVEVVVYQYPPGTEFAHPLYYLDPENTLSFKSLRIKEMRYMKKLAYADTRTGTGEEEEEEGTFFWDKGRFFNDSGYWEMRAFIEDKNGYLRPQSPEESKFCIACHGGIGGTVDGTFTLWRKIPGEEGWKEQDYKNIKDYRYKAITCENLDSLEMGEEVKKALEAYCSKVGESPGEYTVYFALTAGGDHFRSNYEILQDISVDGKVDLELLYNPEKIKFIDNSGFIKPELFFPEPERAYGIDKQYYRIVKAQAFIYGRDVFEKAFGISSGGNSLEELDNLESTGVKESGIWNFVKNFLSSE”, the “soluble on expression in E. coli” value is “not soluble”.

Consider “MGHHHHHHSHCSSCSTPLYDQGGPVEILPFLYLGSAYHASRKDMLDALGITALINVSANCPNHFEGHYQYKSIPVEDNHKADISSWFNEAIDFIDSIKNAGGRVFVHCQAGISRSATICLAYLMRTNRVKLDEAFEFVKQRRSIISPNFSFMGQLLQFESQVLAPHCSAEAGSPAMAVLDRGTSTTTVFNFPVSIPVHSTNSALSYLQSPITTSPSC”, for which the “soluble on expression in E. coli” value is recorded as “not soluble”.

As to “MNNWREIAVRPDESIRETLEVIDEGAVQIAIVADGHDHLQGIVTDGDIRRGILKDLDLGAPVASVMNEDPITARPQEDRQSLIDTMRARRIHQIPLVDNEGRVVGIEVLDDLLEPEARPNPVVLMAGGLGTRLRPLTDDCPKPLLEVGDKPILETILEGFIAHGFHRFYLSVNYKAGMIEDYFRDGSNWGVDISYVHEEKRLGTAGPLSLLPERPDETMIVMNGDLLTKLNFTHLLDFHREHGAVATMCVREHETQVPYGVIETDDQSMEGIEEKPTERYFVNAGIYVLEPETLGYVPENEFFDMPDLFKRLIDEGKEATVFPVREYWQDVGRKEDFHRVNGEYEEVFDTLEHHHHHH”, the “soluble on expression in E. coli” value is reported as “soluble”.

Regarding “MDSIERKKTKPYNINEKEILDIVAAKGSYLSSISENLEEVPPHKESSSRAESKKTITDEEVKKYIEALLNNFSSNRRKPLHIDAQVYECISDIVWAVRRKDFTVSGVISRILVEHIKENAGMIKKITGRDYKLLQP”, the “soluble on expression in E. coli” value is on record as “not soluble”.

As to “MYATFSALKKYGYAELSIQRIASELNFSKSTLYHHFSDKDDLLLSFFNFLLDELEQFCKSSSTNEPKKELLDFVDVLLDEGITQKEQSAKGEILAAYIELRSQAIHDTKYRERITRTDKRFVKQIAVIIDAGIDKGVFQPVEPEETAEFILAILNGILMQGSTRKRAPFQQLRQNLIEYIQTELFVESATRS”, the “soluble on expression in E. coli” value is given as “not soluble”.

“MSAPVADAPAAEIVYKIISSDGVVSKMSEKAVQQSKTLSNLIENLGYTIENIETRDPIPVTNVNGKTMAKVAELCEKHKADAIPEDNMNVLKTLTIPEWDQKFLKIEDEALFDLILASNFLDIKGLMYYGCKTVSNMAKGKTTAELREIFGINTDEQDAAEETAQKAAAEVA”: the “soluble on expression in E. coli” value was “not soluble”.

Regarding “AHHHHHHGSLVVKDLNVEYDNVKVLKGISFALNSGEKAIILGTNGAGKTTLLKSLLGLIPIKSGKIQICGKPYEKVVGEKKVSTNLESVYKLVYSIKVSELIDLYCDLKEIPSQQILNFIKEMKLEHILEKKFYNLSSGEKKCLTNLLAFFTDSKLILLDEPFEGLDPWRTNKTVEILNSLKSSIIMTTHRLDILSKFSTFKVYFLFNGHLYGPIRSASDLVNCYVTFSDIEEGESDIVLRIQGDKKNVILTRRPIGQKISDYASIDEIYRVMLE”, the “soluble on expression in E. coli” value was “not soluble”.

With “MYEGLLIDIDYLLNVVKELKINFDKKIKTLNLLIERNIPIVLYTENNKEYVDTIMKYLKIKEPAIIVEGAQIYSPFDLSYEAVFPLSINTVCKLGNWAMDRKMDMSISTDKKVIDYSEWLKELRQVNYKNAGDKLPSAVKVDICMKNDDKRIELLNFIGKNNLECYAHMYLNHVACINSIVDKGNTLKYLANKKKWDIKKFAMIGDYSKDTSIFDEVGF”, the “soluble on expression in E. coli” value is recorded as “not soluble”.

On to “GPGSMLDAATGKSKGFGFVLFDEEEKGAKAYKALNRKMTRACGHSFTLVIYPSNHNGKIFTEESNALYIRNIPISIGQEKMERFLRTFGNLIYFAMREDHYGNPVWVVYAEYETVDDAKNALAKLHGNNTYFHGSVPILAKFEDSDDAKKERRRRRDGMQTHDRTAGAFFRHRSATTRTLDRFTPLPRR”, for which the “soluble on expression in E. coli” value is on record as “not soluble”.
